Source: patent publication US12558435B2, “Transient inhibition of p53 in gene therapy” (Ospedale San Raffaele S.R.L., priority 2018, dated 2026)

What was measured:
human CD34+ cells [1] = format: cell-based
Description: CD34+ cells were either freshly purified from human CB after obtaining informed consent and upon approval by the Ospedale San Raffaele Bioethical Committee, or purchased frozen from Lonza. CD34+ cells were edited according to a previously optimized protocol (Schiroli et al. 2017 supra).
Briefly, 5×10^5 CD34+ cells/ml were stimulated in serum-free StemSpan medium (StemCell Technologies) supplemented with penicillin, streptomycin, glutamine, 1 μM SR-1 (Biovision), […] (STEMCell Technologies), 10 μM PGE2 added only at the beginning of the culture (Cayman), and human early-acting cytokines (SCF 100 ng/ml, Flt3-L 100 ng/ml, TPO 20 ng/ml, and IL-6 20 ng/ml; all purchased from Peprotech). After 3 days of prestimulation, cells were washed with PBS and electroporated using P3 Primary Cell 4D-Nucleofector X Kit and program EO-100 (Lonza). Cells were electroporated with 2.5-1.25 μM of RNPs.
Transduction with AAV6 was performed at a dose of 1-2×10^4 vg/cell 15′ after electroporation. GSE56 mRNA was utilized were indicated at a dose of 150 μg/ml. Gene editing efficiency was measured from cultured cells in vitro 3 days after electroporation by flow cytometry measuring the percentage of cells expressing the GFP marker or by digital droplet PCR analysis designing primers and probe on the junction between the vector sequence and the targeted locus and on control sequences utilized as normalizer as previously described (Schiroli et al. 2017 supra).
For HDR ddPCR, primers and probes were designed on the junction between the vector sequence and the targeted locus and on control sequences used for normalization (human TTC5 genes). Thermal conditions for annealing and extension were adjusted for each specific application as follows: AAVS1/Intron 1 IL2RG HDR 3′ integration junction ddPCR: 55° C. for 30 sec, 72° C. for 2 min. Primers and probes for PCR and ddPCR amplifications are shown below.
CD34^+ cells were purchased frozen from Lonza. CD34^+ cells were edited according to a previously optimised protocol (Schiroli, G. et al (2017) Sci Transl Med 9). Briefly, 1-5×10^5 CD34^+ cells/ml were stimulated in serum-free StemSpan medium (StemCell Technologies) supplemented with penicillin, streptomycin, glutamine, 1 μM of the arylhydrocarbon receptor antagonist SR-1 (Biovision), […] of the pyrimidoindole-derivative UM171 (STEMCell Technologies), 10 μM of the 15-hydroxy PGDH competitive inhibitor dmPGE-2 added only at the beginning of the culture (Cayman), and human early-acting cytokines (SCF 100 ng/ml, Flt3-L 100 ng/ml, TPO 20 ng/ml, and IL-6 20 ng/ml; all purchased from Peprotech). After 3 days of pre-stimulation, cells were washed with PBS and electroporated using P3 Primary Cell 4D-Nucleofector X Kit and program EO-100 (Lonza). Cells were electroporated with 1-1.2 μM of RNPs. Where specified, electroporation mixture was supplemented with Ad5-E4orf1, Ad5-E4orf6/7 and GSE56/Ad5-E4orf6/7 mRNAs, which were respectively utilized at doses of 120, 80 and 200 μg/ml, or Ad5-E1B55K and Ad5-E4orf6 mRNAs were used at 120 and 80 μg/ml. All other adenoviral protein variants were used at standard dose 120 μg/ml. Transduction with AAV-6 was performed 15 min post-electroporation at dose of 1-5×10^4 vg/cell. Where specified, CD34+ cells were stimulated for shorter time in culture (0, 24 or 48 hours) and edited as described above. Gene editing efficiency was measured from cultured cells in vitro at 4 days post-editing by flow cytometry measuring the percentage of cells expressing the GFP reporter gene or by digital droplet PCR analysis designing primers and probe on the junction between the vector sequence and the targeted locus and on control sequence utilised as normaliser as previously described (Schiroli, G. et al (2017) Sci Transl Med 9) and Schiroli et al., Cell Stem Cell 2019. […]

human CD34+ cells [2] = assay: CFU-C / colony forming cell assay of edited CD34+ cells; format: cell-based; conditions: for erythroid and myeloid clonogenic output compared to standard protocol: FIG. 14G
[3] = system: human CD34+ cells transplanted into NSG mice; assay: Xenotransplantation of edited human CD34+ cells in NSG mice; format: in vivo
Description: For transplantation, 3×10^5 CD34+ cells treated for editing at day 5 of culture were injected intravenously into NSG mice after sub-lethal irradiation (150-180 cGy). Sample size was determined by the total number of available treated cells. Mice were attributed to each experimental group randomly. Human CD45+ cell engraftment and the presence of gene-edited cells were monitored by serial collection of blood from the mouse tail and, at the end of the experiment (>20 weeks after transplantation), BM and spleen were harvested and analyzed.
NOD-SCID-IL2Rg^−/− (NSG) mice were purchased from The Jackson Laboratory and were maintained in specific-pathogen-free (SPF) conditions. The procedures involving animals were designed and performed with the approval of the Animal Care and Use Committee of the San Raffaele Hospital (IACUC #749) and communicated to the Ministry of Health and local authorities according to Italian law. For transplantation, 1.5-3×10^5 (for primary) or 2×10^6 (for secondary) CD34^+ treated cells at 24 hours post-editing protocol were injected intravenously into NSG mice after sub-lethal irradiation (180 cGy). Sample size was determined by the total number of available treated cells. Mice were attributed to each experimental group randomly. Human CD45^+ cell engraftment and the percentage of edited GFP^+ cells were monitored by serial collection of blood from the mouse tail over the weeks post-transplantation and at the end of the experiment (18-20 weeks post-transplantation) both spleen and bone-marrow were harvested and analysed.

CDKN2A = assay: TaqMan assay of CDKN2A gene expression; format: cell-based, human; conditions: 24 hours post-editing; FIG. 16C-D
CDKN1A = assay: TaqMan assay of CDKN1A gene expression; format: cell-based, human
Description: (§1) For gene expression analyses, total RNA was extracted using the RNeasy Plus Micro Kit (QIAGEN). cDNA was synthetized with SuperScript VILO IV cDNA Synthesis Kit (Invitrogen) and used for Q-PCR in a Viia7 Real-time PCR thermal cycler using TaqMan Gene Expression Assays (Applied Biosystems) mapping to CDKN1A, RPS27L, PHLDA3, APOBEC3H, and HPRT as normalizer. The relative expression of each gene was first normalized to HPRT expression and then represented as fold change relative to the mock-treated sample.

APOBEC3H = assay: TaqMan assay of APOBEC3H gene expression; format: cell-based, human; conditions: 24 hours post-editing; FIG. 16G
Description: as §1

B1: GSE56: p53 dominant negative peptide (SEQ ID No. 9), transiently overexpressed from electroporated mRNA (protein)
chain: MDGWCPGRDRRTEEENFRKKEEHCPELPPGSAKRALPTSTSSSPQQKKKPLDGEYFTLKIRGRERFEMFRELNEALELKDARAAEESGDSRAHSSYPKIVS
modifications: amino acid sequence of GSE56
- increase of GFP expression compared to standard RNP+AAV6 (human CD34+ cells [1]; AAVS1, most primitive compartment (CD34+133+90+ / CD90+), 96 hours, FIG. 14C): 1.1 fold
- HDR-mediated integration (GFP+ cells) in the CD34+ 133+ 90+ fraction, mean (human CD34+ cells [1]; AAVS1 or IL2RG editing, 3 days): 42%
- overall efficiency of DNA repair (human CD34+ cells [1]; AAVS1 or IL2RG editing, 3 days, FIG. 3C): did not negatively impact overall efficiency of DNA repair
- HDR-mediated integration at the targeted locus (human CD34+ cells [1]; AAVS1 or IL2RG editing, ddPCR, 3 days, FIG. 3C left): promoted HDR-mediated integration at the targeted locus
- erythroid and myeloid clonogenic output compared to standard protocol (human CD34+ cells [2]): improved
- erythroid and myeloid clonogenic output (human CD34+ cells [2]; sorted populations, FIG. 3F): increased particularly in CD90+ fraction
- fraction of HDR-edited cells in the PB, average ([3]; 22 weeks post transplantation, IL2RG edited cells, FIG. 4D): 32%
- engraftment in the haematopoietic organs ([3]; AAVS1, limited dose T0eq=1.5×10^5/mouse, FIG. 12C): significantly higher engraftment
- percentage of human cells in the peripheral blood ([3]; CD40LG-edited cells, FIG. 13B): higher percentage of human cells
- percentage of gene correction over time ([3]; CD40LG-edited cells, FIG. 13C): more stable percentage of gene correction over time
- percentage of corrected cells in sorted cell types, vs standard ([3]; CD40LG-edited cells, endpoint, included CD34+ cells, FIG. 13E): 3- to 6 fold
- differentiation output ([3]; IL2RG edited cells, PB lineages, FIG. 4C): without any skewing in the differentiation output
- human CD45+ engraftment ([3]; IL2RG edited cells, PB of NSG mice, FIG. 4B): increased engraftment
- engraftment of treated cells ([3]; discussion summary): higher engraftment of treated cells
- CDKN2A expression (CDKN2A): still remained at basal level
- reduction of the amplitude of p21 (CDKN1A) activation compared to RNP+AAV6 (CDKN1A; 24 hours post-editing, FIG. 16E): about 3 fold
- APOBEC3H expression (APOBEC3H): significantly down-regulated

B2: E4orf6/7: adenoviral protein from adenovirus serotype 5 E4 gene (SEQ ID No. 2), delivered as mRNA (protein)
chain: MTTSGVPFGMTLRPTRSRLSRRTPYSRDRLPPFETETRATILEDHPLLPECNTLTMHNAWTSPSPPVKQPQVGQQPVAQQLDSDMNLSELPGEFINITDERLARQETVWNITPKNMSVTHDMMLFKASRGERTVYSVCWEGGGRLNTRVL
modifications: delivered as mRNA; example amino acid sequence of Ad5-E4orf6/7
- mean increase in the percentage of primitive HSPC expressing GFP (CD34+CD133+CD90+GFP+) (human CD34+ cells [1]; AAVS1, CB CD34+, vs standard, all AAV6 doses, FIG. 6B): 1.5 fold
- increase in the percentage of targeted CD90+ cells (human CD34+ cells [1]; AAVS1, cells for NSG transplantation, FIG. 10B): 1.4 fold
- editing efficiency (GFP expression) at IL2RG locus (human CD34+ cells [1]; IL2RG, FIG. 14I): significant editing efficiency increase
- HDR edited alleles at AAVS1 locus (human CD34+ cells [1]; digital PCR in bulk culture, FIG. 14D): significantly increased
- HDR-events integrations increase in AAVS1 locus of HSPCs (human CD34+ cells [1]; discussion): 1.5 fold
- editing efficiency by molecular analyses on genomic DNA (human CD34+ cells [1]; human HSPC, FIG. 8B): reproducibly able to boost editing
- mean increase in the fraction of GFP+ cells compared to the standard (human CD34+ cells [1]; side-by-side, AAVS1, 4 days, FIG. 7A): 1.45 fold
- editing efficiency with editing at day 0 to day 2 post-thawing (human CD34+ cells [1]; total bulk and CD90+ fraction, AAVS1, FIG. 14K): editing efficiency was increased
- HDR-mediated integration (genomic DNA) (human CD34+ cells [1]; vs standard, FIG. 10D): increase levels of HDR-mediated integration
- increase in number of myeloid and erythroid colony forming units (CFU) compared to standard (human CD34+ cells [2]; FIG. 7C): 2 fold
- erythroid and myeloid clonogenic output compared to standard protocol (human CD34+ cells [2]): not affected
- human CD45+ cell engraftment in bloodstream, between groups ([3]; AAVS1, T0eq=3×10^5/mouse, FIG. 17B): did not show any statistical significance
- increase of the fraction of circulating edited cells ([3]; AAVS1, T0eq=3×10^5/mouse, primary transplant, FIG. 17C): 1.5 fold
- fraction of edited cells (GFP+ or HDR+) in blood, hematopoietic organs and blood lineages ([3]; AAVS1 edited CB CD34+, FIG. 11): significant higher fraction of edited cells
- overall level of engraftment of the human cells ([3]; AAVS1 edited CB CD34+, FIG. 11): does not affect the overall level of engraftment
- CDKN2A expression (CDKN2A): significantly up-regulated
- CDKN1A expression compared to the standard (CDKN1A; 12 hours post-editing, FIG. 16F): about 2 fold
- APOBEC3H expression (APOBEC3H): significantly down-regulated
